Source: US12331324B2, “Versatile peroxidases and uses thereof” (Yeda Research and Development Co. Ltd., priority 2021, dated 2025)

Legend:
[1] = substrate: CCn1c(=NN=c2sc3cc(S(=O)(=O)O)ccc3n2CC)sc2cc(S(=O)(=O)O)ccc21; assay: purified protein, by the assay type; settings: optimum pH, 25° C., 0.4 mM H2O2
Description: (§5) VPs production and purification. […] An aliquot of cells was removed and used to inoculate 100 mL of minimal medium in a 1 L flask to an OD600 nm of 0.25-0.30, under the same conditions. The cells completed two growth phases (8-10 hours, reaching OD600 nm˜1-1.5), then the expression medium (450 mL) was inoculated with 50 mL of the pre-culture in a 2 L flask (OD600 nm˜0.1). Cells were incubated for a further ˜60 hours at 30° C. and 225 rpm. Thereafter, cells were centrifuged at 6000 g for 15 min at 4° C., and the supernatant was collected and filtered with a 0.2 μm filter bottle.
(§6) The reaction mixtures contained a specific substrate in 100 mM citrate-phosphate-borate buffer (pH 2, 3, 3.5, 4, 5, 6, 7, 8) and 0.1 mM H2O2. […] The following substrate concentrations and absorption wavelengths were used: ABTS: 2 mM, 418 nm; DMP: 5 mM, 469 nm; RB5: 0.05 mM, 598 nm; VA: 30 mM, 310 nm.

[2] = substrate: COc1ccc(CO)cc1OC; assay: purified protein, by the assay type; settings: other: VA, RB5, optimum pH, 25° C., 0.4 mM H2O2
Description: as §5, §6

[3] = substrate: COc1cccc(OC)c1O; assay: purified protein, by the assay type; settings: optimum pH, 25° C., 0.4 mM H2O2
Description: as §5, §6

[4] = substrate: Nc1c(N=Nc2ccc(S(=O)(=O)CCOS(=O)(=O)O)cc2)c(S(=O)(=O)O)cc2cc(S(=O)(=O)O)c(N=Nc3ccc(S(=O)(=O)CCOS(=O)(=O)O)cc3)c(O)c12; assay: purified protein, by the assay type; settings: other: VA, RB5, optimum pH, 25° C., 0.4 mM H2O2
Description: as §5, §6

[5] = substrate: OO; assay: purified protein, by the assay type; settings: other: H2O2 kinetics with 2 mM ABTS, optimum pH for ABTS, 25° C.
Description: as §5, §6

[6] = substrate: CCn1c(=NN=c2sc3cc(S(=O)(=O)O)ccc3n2CC)sc2cc(S(=O)(=O)O)ccc21; assay: Steady-state kinetics (Michaelis-Menten) of purified VP design 11H with peroxidase substrates; type: biochemical, Pleurotus ostreatus; settings: optimum pH, 25° C., 0.1 mM H2O2
Description: (§1) VPs production and purification. A colony from S. cerevisiae clone containing the VP gene (5H, 8H, 11H, VPL_R4, VPL_2-1B) was picked from an SC drop-out plate, inoculated in 25 mL minimal medium in a 250 flask, and incubated for 48 hours at 30° C. and 225 rpm. An aliquot of cells was removed and used to inoculate 100 mL of minimal medium in a 1 L flask to an OD600 nm of 0.25-0.30, under the same conditions. The cells completed two growth phases (8-10 hours, reaching OD600 nm˜1-1.5), then the expression medium (450 mL) was inoculated with 50 mL of the pre-culture in a 2 L flask (OD600 nm˜0.1). Cells were incubated for a further ˜60 hours at 30° C. and 225 rpm. Thereafter, cells were centrifuged at 6000 g for 15 min at 4° C., and the supernatant was collected and filtered with a 0.2 μm filter bottle.
(§2) Filtrates were subjected to fractional precipitation with ammonium sulfate in two steps: first cut of 50%, followed by centrifugation and elimination of the precipitates, and the second cut of 70%. Buffer A was used to dissolve the pellet, and the dissolved protein solution was shaken overnight at 4° C. for maximal recovery. The dissolved fraction was then centrifuged, filtrated, concentrated, and subjected to overnight dialysis against buffer A. Filtered fractions of the VP proteins after dialysis were uploaded into a HiTrap™ Q HP Column (GE Healthcare Bio-Sciences AB, Uppsala, Sweden) pre-equilibrated with buffer A, through ÄKTA pure protein purification system (GE Healthcare Bio-Sciences AB). Proteins were eluted in a two-step linear gradient from 0 to 1 M NaCl, at a flow rate of 1 ml/min: the first phase of 0-25% over 15 column volumes (75 min) and second phase of 25-100% over 2 column volumes (10 min). The fractions of the peak with the highest VP activity (and absorption at 407 nm) were pooled, concentrated, and dialyzed against 20 mM piperazine buffer pH=5.5 and 150 mM NaCl (buffer B). Protein fractions were then uploaded onto a Superdex 75 Increase 10/300 GL (GE Healthcare Bio-Sciences AB) through the ÄKTA pure system pre-equilibrated with buffer B. The fractions of the peak with the highest VP activity (and absorption at 407 nm) were pooled and dialyzed against buffer A. Pure protein samples were stored at 4° C. Protein concentration was determined using the BCA assay with bovine serum albumin as a standard. The obtained Reinheitszahl values (Rz: Abs407 nm/Abs280 nm), which indicate for the purity of peroxidases, were 1 for 8H (due to high tryptophan content) and above 2 for 5H, 11H, R4 and 2-1B.
(§3) pH activity profiles. For purified 5H, 8H, 11H, and R4, 20 μL protein samples (diluted in buffer A) were transferred into activity 96 plates (in the case of VA and MnSO4, UV-Star plates; Greiner Bio-One GmbH, Kremsmünster, Austria) and then, 180 μL of the reaction mixture were added to each row in the plate, and absorption at the appropriate wavelength (substrate-dependent) was recorded immediately in a kinetic mode in a plate-reader at 25° C. The reaction mixtures contained a specific substrate in 100 mM citrate-phosphate-borate buffer (pH 2, 3, 3.5, 4, 5, 6, 7, 8) and 0.1 mM H2O2. The activities were recorded in triplicate. The following substrate concentrations and absorption wavelengths were used: ABTS: 2 mM, 418 nm; DMP: 5 mM, 469 nm; RB5: 0.05 mM, 598 nm; VA: 30 mM, 310 nm. For manganese, the reaction mixtures contained 60 mM MnSO4 in 100 mM sodium tartrate buffer (pH 3, 3.5, 4, 4.5, 5) and 0.1 mM H2O2, and the Mn^3+-tartrate complex absorption was read at 238 nm. For each protein and substrate, the activities were normalized to the activity at optimal pH for residual activity calculations. Each activity assay was conducted in triplicate.
(§4) Kinetic parameters. Steady-state kinetics were determined for 5H, 8H, 11H and R4, by measuring the activity (initial rates) in increasing concentrations of the substrate, and the KM and Kcat values were calculated by fitting the results to the Michaelis-Menten model (V0=KcatES/(KM+S)). […]

[7] = substrate: COc1ccc(CO)cc1OC; assay: as above; type: biochemical, Pleurotus ostreatus; settings: other: VA, RB5, optimum pH, 25° C., 0.1 mM H2O2
Description: as §1, §2, §3, §4

[8] = substrate: COc1cccc(OC)c1O; assay: as above; type: biochemical, Pleurotus ostreatus; settings: optimum pH, 25° C., 0.1 mM H2O2
Description: as §1, §2, §3, §4

[9] = substrate: Nc1c(N=Nc2ccc(S(=O)(=O)CCOS(=O)(=O)O)cc2)c(S(=O)(=O)O)cc2cc(S(=O)(=O)O)c(N=Nc3ccc(S(=O)(=O)CCOS(=O)(=O)O)cc3)c(O)c12; assay: as above; type: biochemical, Pleurotus ostreatus; settings: other: VA, RB5, optimum pH, 25° C., 0.1 mM H2O2
Description: as §1, §2, §3, §4

[10] = substrate: OO; assay: as above; type: biochemical, Pleurotus ostreatus; settings: other: H2O2 kinetics with 2 mM ABTS, optimum pH for ABTS, 25° C.
Description: as §1, §2, §3, §4

B1: Pleurotus ostreatus versatile peroxidase VP5, designed variant 5H, SEQ ID NO: 1 (wild type SEQ ID NO: 4; mutations A11S, V15T, A17S, A19E, P26D, D38G, A40Q, … (protein)
chain: VSLPQKRATCSGGQTTSNEACCVLFDLMEDLQKNLFDGGQCGEQAHEALRLTFHDAIGFSPSRGVMGGADGSVITFSDIETNFPANLGIDDIVEAEKSFLQRHNISAGDLVHFAATLAVTNCPGAPRIPFFLGRPPATAPSPPGLVPEPFDSVTDILARMADAGFSPVEVVWLLSAHSVAAADHVDPTIPGTPFDSTPNLFDSQFFIETQLRGTTFPGTGGNPGEVKSPLPGEMRLQSDHLFARDPRTACEWQSMVNDQQKIQDRFRDTLFKMSMLGQNQDDMIDCSDVIPVPPPLTTKPHLPAGKSKTDVEQACATAPFPTLPADPGPPTSVPPVPPA
For B1, the Km ([1]; other: high efficiency site) was 1.9 ± 0.4 µM, the kcat ([1]; other: high efficiency site) was 1.5 ± 0.1 s⁻¹ and the kcat/Km ([1]; other: high efficiency site) was 763000 ± 151000 M⁻¹ s⁻¹. It also gave a Km ([1]; other: low efficiency site) of 765 ± 96 µM, a kcat ([1]; other: low efficiency site) of 33.2 ± 1.8 s⁻¹ and a kcat/Km ([1]; other: low efficiency site) of 43400 ± 5900 M⁻¹ s⁻¹. The Km [2] was 158 ± 27 µM, the kcat [2] was 0.52 ± 0.02 s⁻¹ and the kcat/Km [2] was 3300 ± 600 M⁻¹ s⁻¹. The Km ([3]; other: high efficiency site) was 85.7 ± 16.9 µM, the kcat ([3]; other: high efficiency site) was 1.2 ± 0.1 s⁻¹ and the kcat/Km ([3]; other: high efficiency site) was 14400 ± 3000 M⁻¹ s⁻¹. The Km ([3]; other: low efficiency site) was 27,700 ± 7,100 μM, the kcat ([3]; other: low efficiency site) was 5.4 ± 0.6 s⁻¹ and the kcat/Km ([3]; other: low efficiency site) was 190 ± 50 M⁻¹ s⁻¹. The Km [4] was 2.9 ± 1.0 µM, the kcat [4] was 0.18 ± 0.04 s⁻¹ and the kcat/Km [4] was 62300 ± 25200 M⁻¹ s⁻¹. For the same protein, the Km [5] was 197 ± 20 µM, the kcat [5] was 20.3 ± 0.8 s⁻¹ and the kcat/Km [5] was 103000 ± 11000 M⁻¹ s⁻¹.

B2: Pleurotus ostreatus versatile peroxidase VP11, designed variant 11H, SEQ ID NO: 3 (wild type SEQ ID NO: 6; mutations A11S, V15T, A17S, P26D, I27L, L28R, E29D, … (protein)
chain: VTLPQKRATCSGGQTTSNAACCVLFDLRDDLQKNLFDGGQCGEEVHESLRLTFHDAIGFSPTKGGGGADGSVLIFSDTELNFPANLGIDEIVEAQKPFLQRHNISAGDLVQFAGALGVSNCPGAPRIPFFLGRPPATAPSPDGLVPEPFDSVDDILARMADAGFSPVEVVWLLSSHTIAAADHVDPTIPGTPFDSTPSIFDSQFFIETQLRGTLFPGTGGNPGEVESPLPGEIRLQSDHLLARDPRTACEWQSMVDNMPKIQNRFAATMLKMSLLGQNVRDLIDCSDVIPTPPPLVGTAHLPAGKTQSDVEQACATTPFPTIPADPGPVTSVPPVPPS
In the case of B2, the Km ([6]; other: high efficiency site) is reported as 6.3 ± 0.7 µM, the kcat ([6]; other: high efficiency site) is reported as 2.0 ± 0.1 s⁻¹ and the kcat/Km ([6]; other: high efficiency site) is reported as 314000 ± 37000 M⁻¹ s⁻¹. The Km ([6]; other: low efficiency site) was 1,100 ± 90 μM, the kcat ([6]; other: low efficiency site) was 11.2 ± 0.3 s⁻¹ and the kcat/Km ([6]; other: low efficiency site) was 10300 ± 900 M⁻¹ s⁻¹. The Km [7] was 2,000 ± 100 μM, the kcat [7] was 1.38 ± 0.03 s⁻¹ and the kcat/Km [7] was 680 ± 50 M⁻¹ s⁻¹. For the same protein, the Km ([8]; other: high efficiency site) was 168 ± 10 µM, the kcat ([8]; other: high efficiency site) was 1.91 ± 0.04 s⁻¹ and the kcat/Km ([8]; other: high efficiency site) was 11400 ± 700 M⁻¹ s⁻¹. The Km ([8]; other: low efficiency site) was 11,400 ± 2,000 μM, the kcat ([8]; other: low efficiency site) was 6.3 ± 0.4 s⁻¹ and the kcat/Km ([8]; other: low efficiency site) was 550 ± 100 M⁻¹ s⁻¹. For the same protein, the Km [9] was 2.0 ± 0.2 µM, the kcat [9] was 0.3 ± 0.01 s⁻¹ and the kcat/Km [9] was 152000 ± 20000 M⁻¹ s⁻¹. The Km [10] was 38.9 ± 6.9 µM, the kcat [10] was 7 ± 0.5 s⁻¹ and the kcat/Km [10] was 180000 ± 35000 M⁻¹ s⁻¹.
